From the supplement of paper PMC12042874
± gives the uncertainty stated by the source.

Assay: amyloid nucleation score (Sup35N fusion, yeast selection) (log enrichment); library NNK3; higher = more nucleation; inactive = no reads after selection
How it was run: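 Using DiMSum, nucleation scores were taken as the log enrichment of output over input reads, centred on the mode score of non-aggregating sequences. The input and output reads came from Illumina sequencing of plasmid inserts, with sequences under 100 input reads excluded. The yeast were psi-negative, expressed Sup35N fused to peptides of 20 random codons, were induced with 100 μM copper sulfate for 24 hours, and were grown 7 days at 30°C on medium lacking adenine and uracil.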

| Substance | amyloid nucleation score |
| --- | --- |
| PFGGRR | 0.013 ± 0.47 |
| SMFSLWNS | inactive |
| NRTMLFEEKYVG | inactive |
| DDGGVTVVWTCGRVCIQMGN | 0.399 ± 0.24 |
| RMNNLSGEQKQLCDLSLAVR | inactive |
| VVTVARERYIVF | inactive |
| YNNTVCL | inactive |
| PFHRIPISVSLGYAFGTRCS | inactive |
| SRMSGLWD | inactive |
| SHVKYNNMW | inactive |
| YTWDVGHLKNSSSVYWKLLR | inactive |
| YYVSRVSKMCWLRDVRWISI | inactive |
| NSDNHYFQRTMTNFANGKGC | inactive |
| FHIRHEGMLFQWGHEALAVK | inactive |
| RVNRSLGIVSIECRWVVIRG | inactive |
| SSNLFVHHTSFTWASSTPHR | inactive |
| MKDMSFTYLLFKSHCAWVSL | inactive |
| GIWSASRLKGNSLYCLLKNV | inactive |
| LGNSFLE | -0.445 ± 0.84 |
| FASVFVMN | inactive |
| AEYQPFRQRHVL | inactive |
| VWVIVKTNLLLVAGQGGAFG | 0.693 ± 0.15 |
| VLRVMCRCDCNTGFAKRESV | inactive |

| Substance | amyloid nucleation score |
| --- | --- |
| RGWYINTVGYRTRAGHNLCG | inactive |
| LGSLVLLRFWY | -0.181 ± 1.4 |
| DSIAVCGRITPSLNLQFDMQ | inactive |
| YFMCREMALILEHLCEAGWC | inactive |
| TGVNFGRLLLISRSVLGVC | inactive |
| WLCPYARFIRNRSLLFCMFW | inactive |
| LTCPSFCVSRLRESWDESLS | inactive |
| ELYVMLGDGAFVRAIKDYVS | inactive |
| LMILLGSKFRNANGTTSMLK | inactive |
| KFRWVFYFGSAMEVREGSEF | -0.141 ± 0.45 |
| LNRWCCFSVITMCLMANFDA | 2 ± 0.089 |
| RTYLDYGVNALLCPLTWGFS | -0.071 ± 0.73 |
| GSWLNSYVELTCVFFGSFYM | inactive |
| VVDIKNLYTCLTFCHKYGLN | 0.988 ± 0.12 |
| LVVGISRPMSTGSMASWQWR | inactive |
| CDMRP | inactive |
| LSTENLLVYMWDRLNSILKG | inactive |
| PFVSVSVCTSLKGCSR | 1.8 ± 0.1 |
| QASIVSTG | -0.926 ± 2.4 |
| PVAMAYAVSSVVDMASN | inactive |
| GNEIGITGVYGLHRSAKVVV | inactive |
| IVCISLCLAAEKQPSGCEFG | 2.01 ± 0.068 |
| SYFDIFGTTDQVSVKSRMCT | inactive |

| Substance | amyloid nucleation score |
| --- | --- |
| LLYYFYTFTQGR | -0.148 ± 0.43 |
| STQGCLCRYPG | -0.333 ± 0.88 |
| MWHLTF | inactive |
| TVTHALLSYKCHNG | inactive |
| AIKYICSFSSVSVMR | inactive |
| MQLDLMCCLVSCTMNTFSSR | 1.54 ± 0.11 |
| GSDFTESCVDFFLVVNVDAV | inactive |
| GGLCRGYQDMIMLWNMLQKQ | inactive |
| ASRTAHVSEVQFGCAPGSER | inactive |
| SVSNPRNRT | inactive |
| DMNSACCVWHSVFYSEFYVI | 2.19 ± 0.069 |
| LINKHNRVMYLAICA | inactive |
| LRLGIEMNTIGTLNMGPLSL | inactive |
| LLVVNNCIYGMVKRSIGYD | 2.13 ± 0.07 |
| GIYFDSGLRGWHSLNHRCRR | 0.132 ± 0.59 |
| CKTGPEDTC | inactive |
| CQCEIF | 0.065 ± 0.56 |
| AKWLEEKLMPAIDVVPGQWL | inactive |
| LVSKAGLSLRLKG | inactive |
| GGMHRAYMESVSDVYLRKWW | 0.308 ± 0.21 |
| HATGSMNVSVSAGVRQQILR | inactive |
| CVFRWMLFSASEYDGRILKW | inactive |
| LVNLAELDFVECCLENKMQW | inactive |

| Substance | amyloid nucleation score |
| --- | --- |
| ARFISVCEHEARLRERTCMC | inactive |
| QLCPHYFCKNKNATYGLTSR | inactive |
| RFQYLNYCMFMVRCGHYDTS | inactive |
| IATIVCYRLDGYHVLSYAHT | inactive |
| SLALFFGIHPNLCFTDTSST | 0.559 ± 0.2 |
| KCDEDCYAFDVYLSMGYDVS | inactive |
| IVPAWLFGV | inactive |
| RRKWHEYSVVMSRTNHMCIW | -0.118 ± 0.58 |
| MTRCLSFWTRSQVLYFCWKL | inactive |
| LRGITLSMQGCTDWFVMYLC | inactive |
| MCQAIDSNTYWYLAHCGNSS | 0.494 ± 0.25 |
| EYRGKIDVYYLIGQNYSVSC | 0.621 ± 0.27 |
| LRGYSASSSIVCESSRYARL | inactive |
| ELNTFKSTQIHWGIGDSSQE | 0.34 ± 0.31 |
| ETYKITLRTCLLATAGLREF | inactive |
| NVASM | inactive |
| LNMIHSVA | inactive |
| RGCTGIKPLPTSWACAFSTS | inactive |
| AFNHCETDRLTCL | inactive |
| IQNANVRHYKRHRKFLTFIS | 1.27 ± 0.11 |
| ALYERWSTDNVWRRSSQEFL | inactive |
| YSLNGAY | inactive |
| DLLDHGFEASSKDLEFRDHS | inactive |

| Substance | amyloid nucleation score |
| --- | --- |
| RGDVWLELKGLFAIFCYSEL | 2.96 ± 0.062 |
| GEIRSKTTVLP | inactive |
| IYSIVFFSRSLTVRVFGAHY | inactive |
| WMDRLFVSVTAVWRQPDVGI | 1.42 ± 0.11 |
| PRAMLPDWSSALVWWLN | inactive |
| VKRGCCLVICWARFNVSEAH | inactive |
| YYNDSPAFHLRVR | inactive |
| SCCGRKMRPGRFEIIDKFCI | 0.523 ± 0.24 |
| LLCLLQEIGFVAITGWI | inactive |
| VGKFRLMIHVTSHYGFCDLF | inactive |
| VLPCVMYNIHPQITCRR | inactive |
| GDIRLGVAFRIFLSNCWGYF | inactive |
| TLFDRFWVLWNEKWESSGKY | inactive |
| LFTELGSILF | inactive |
| GVWRLATHGYSQ | inactive |
| SCKRPVTVWACDQVRYDRFP | inactive |
| IWRDLGRLIQLFWNEIYHVN | inactive |
| TSTRHDGGFMVMWYLLGLTR | inactive |
| VRFVSYRLVGSV | inactive |
| SYRCMSESRFYYFLSCHARR | inactive |
| SIEMRLCQDWTQLESLT | -0.252 ± 0.66 |
| EGTKEF | inactive |
| STSRGNRFACPCFDYCWFRE | -0.598 ± 1.1 |

| Substance | amyloid nucleation score |
| --- | --- |
| KKYFSVRWVTFWISRV | inactive |
| GKFLVFAKVNVMVGCVLLFM | inactive |
| GDVNCLNTVTLKNNKTRGHI | inactive |
| IKGQSLSNSVFWSGGLDLRV | inactive |
| ATFQSRFFCCRSRGGTLGCD | inactive |
| ELNIN | inactive |
| DIWYKVLYMPVLTV | inactive |
| CFLVNQ | inactive |
| VFTWILSDSHTSMWFRCQGG | inactive |
| RKTSV | -0.071 ± 0.28 |
| TWFTSFYCFSNNAYLYF | 1.8 ± 0.066 |
| FFRFRKCAM | inactive |
| IQFPDQ | inactive |
| LSNQLKDEYHCMWMWWVCPN | 1.29 ± 0.13 |
| YLGRFNSKFMTSVLIMYYP | inactive |
| VIVELVCLVMFNVWVGKGLW | -0.054 ± 0.31 |
| WSCNISYTLLSMGRRLYSRR | inactive |
| CSLQLASDQGFSQRDDCTVH | inactive |
| SGLACRYCTMVGCNLNYNYW | 2.58 ± 0.055 |
| LLGVLDSLMRRFMNHINETG | inactive |
| HNCPFFSTDMKCSKNIHIFG | 1.78 ± 0.077 |
| MFGWRNSTLAVKAGSDTRLP | inactive |
| KFKSRGRSTMLLVFNIVWRV | -0.476 ± 0.42 |

| Substance | amyloid nucleation score |
| --- | --- |
| PFFDFSDINITEPE | -0.306 ± 0.71 |
| DKELKPNFRWGRNFYSFYIC | inactive |
| SFFPIPIWCD | inactive |
| VNNPVLFFQ | inactive |
| NHRYMMVTATRIKWDGVSWN | inactive |
| QLTLACSRLQAGLSSQRHLS | inactive |
| ISTDSVIHTTMEHSGE | inactive |
| AWVHLPGQESGYYCCFMNEM | 1.63 ± 0.12 |
| IYQWTEFCGRIFQSCRMVLC | inactive |
| FRYQDNDLLAHAA | -0.474 ± 1 |
| VFLVQFFFINFLGNSN | 2.45 ± 0.067 |
| YVCDRL | inactive |
| WEGYT | inactive |
| VLYGTSASWSEFEFDHVIHV | inactive |
| LSRCMWDSDMYRGERYGRRR | inactive |
| GLVHCNGSPAQITFKDTFNR | inactive |
| KQGPWVDTVTVMKTFRMSIN | inactive |
| KSNYEGTFGRHVLGPLKNKW | -0.463 ± 1.8 |
| NAVSDTGRKRECFRADRFLS | inactive |
| VSLFRSLGNLSFSSIWLPSP | inactive |
| SLLFTGHLCLYHTLVCCVFI | 1.28 ± 0.11 |
